Paper PMC2764455

What was measured:
bPrP peptide 16 = target: T1, bPrP peptide 16 (bovine, UniProt P10279 108-119); experiment: microchip electrophoresis
T1 chain: GQWNKPSKPKTN

bPrP peptide 1 = target: T2, bPrP peptide 1 (bovine, UniProt P10279 25-36); experiment: microchip electrophoresis
T2 chain: KKRPKPGGGWNT

GGAGGAGGAGGA (structured_RNA) [R12]
binding result (bPrP peptide 16): binds | binding result (bPrP peptide 1): binds
